Reference: US20230293638A1 (Eli Lilly, published 2023)
Where a chain is given by its changes, count along the chain named. Numbered stars: 1 amine (or outer) side, 2 acyl side, 3 side chain; on linkers, the order of the positions; unused ones are H or OH. Square brackets hold non-standard residues; d marks the D form. Side chains are listed from the residue outwards. Ends that are not written are not given here. * marks the point of attachment. C20 diacid = O=C(O)CCCCCCCCCCCCCCCCCCC(=O)*; γGlu = O=C(O)[C@H](CCC(=O)[*:2])N[*:1]; AEEA = NCCOCCOCC(=O)O; Aib = CC(C)(N)C(=O)O

B1: Peptide 25 (peptide)
peptide: Y[Aib]EGTFTSDYSK([AEEA-AEEA-γGlu-C20 diacid])LLDKIAQ[Aib]AFIEYLIEGGPSSGAPPPS-NH2
modifications: N-terminus assumed
SMILES: CC[C@H](C)[C@H](NC(=O)[C@H](CCCCN)NC(=O)[C@H](CC(=O)O)NC(=O)[C@H](CC(C)C)NC(=O)[C@H](CC(C)C)NC(=O)[C@H](CCCCNC(=O)COCCOCCNC(=O)COCCOCCNC(=O)CC[C@H](NC(=O)CCCCCCCCCCCCCCCCCCC(=O)O)C(=O)O)NC(=O)[C@H](CO)NC(=O)[C@H](Cc1ccc(O)cc1)NC(=O)[C@H](CC(=O)O)NC(=O)[C@H](CO)NC(=O)[C@@H](NC(=O)[C@H](Cc1ccccc1)NC(=O)[C@@H](NC(=O)CNC(=O)[C@H](CCC(=O)O)NC(=O)C(C)(C)NC(=O)[C@@H](N)Cc1ccc(O)cc1)[C@@H](C)O)[C@@H](C)O)C(=O)N[C@@H](C)C(=O)N[C@@H](CCC(N)=O)C(=O)NC(C)(C)C(=O)N[C@@H](C)C(=O)N[C@@H](Cc1ccccc1)C(=O)N[C@H](C(=O)N[C@@H](CCC(=O)O)C(=O)N[C@@H](Cc1ccc(O)cc1)C(=O)N[C@@H](CC(C)C)C(=O)N[C@H](C(=O)N[C@@H](CCC(=O)O)C(=O)NCC(=O)NCC(=O)N1CCC[C@H]1C(=O)N[C@@H](CO)C(=O)N[C@@H](CO)C(=O)NCC(=O)N[C@@H](C)C(=O)N1CCC[C@H]1C(=O)N1CCC[C@H]1C(=O)N1CCC[C@H]1C(=O)N[C@@H](CO)C(N)=O)[C@@H](C)CC)[C@@H](C)CC
B2: Peptide 210 (peptide)
peptide: YXEGTXTSDYSIXLDXKAQXEFIXYLIEGGPSSGAPPPS
modifications: Aib2; αMeF(2F)6; αMeL13; Dap16; K17((2-[2-(2-Amino-ethoxy)-ethoxy]-acetyl)2-(γGlu)-CO-(CH2)16-CO2H); Aib20; D-Glu24; C-terminal NH2
B3: Peptide 216 (peptide)
peptide: B2 peptide with X16E
modifications: Aib2; αMeF(2F)6; αMeL13; K17((2-[2-(2-Amino-ethoxy)-ethoxy]-acetyl)2-(εK)-CO-(CH2)18-CO2H); Aib20; D-Glu24; C-terminal NH2
B4: Peptide 215 (peptide)
peptide: B2 peptide with X16E
modifications: Aib2; αMeF(2F)6; αMeL13; K17((2-[2-(2-Amino-ethoxy)-ethoxy]-acetyl)2-CO-(CH2)18-CO2H); Aib20; D-Glu24; C-terminal NH2
B5: Peptide 217 (peptide)
peptide: B2 peptide
modifications: Aib2; αMeF(2F)6; αMeL13; Dab16; K17((2-[2-(2-Amino-ethoxy)-ethoxy]-acetyl)2-(γGlu)-CO-(CH2)18-CO2H); Aib20; D-Glu24; C-terminal NH2
B6: Peptide 213 (peptide)
peptide: B2 peptide with X16E
modifications: Aib2; αMeF6; αMeL13; K17((2-[2-(2-Amino-ethoxy)-ethoxy]-acetyl)2-(γGlu)-CO-(CH2)16-CO2H); Aib20; D-Glu24; C-terminal NH2
B7: Peptide 212 (peptide)
peptide: B2 peptide with X16K
modifications: Aib2; αMeF(2F)6; αMeL13; K17((2-[2-(2-Amino-ethoxy)-ethoxy]-acetyl)2-(γGlu)-CO-(CH2)18-CO2H); Aib20; D-Glu24; C-terminal NH2
B8: Peptide 214 (peptide)
peptide: B2 peptide with X16E
modifications: Aib2; αMeF(2F)6; αMeL13; K17((2-[2-(2-Amino-ethoxy)-ethoxy]-acetyl)2-CO-(CH2)16-CO2H); Aib20; D-Glu24; C-terminal NH2
B9: Peptide 218 (peptide)
peptide: B2 peptide
modifications: Aib2; αMeF(2F)6; αMeL13; Dap16; K17((2-[2-(2-Amino-ethoxy)-ethoxy]-acetyl)2-(γGlu)-CO-(CH2)18-CO2H); Aib20; D-Glu24; C-terminal NH2
B10: Peptide 211 (peptide)
peptide: B2 peptide with X16K
modifications: Aib2; αMeF(2F)6; αMeL13; K17((2-[2-(2-Amino-ethoxy)-ethoxy]-acetyl)-(γGlu)-(2-[2-(2-Amino-ethoxy)-ethoxy]-acetyl)-CO-(CH2)18-CO2H); Aib20; D-Glu24; C-terminal NH2

Molecular target: human GLP-1 receptor (human, UniProt P43220 24-463)
Assay: cell-based or functional assay

Binder	hGLPIR cAMP EC50 ratio
B1	0.197
B2	1.03
B3	1.31
B4	0.813
B5	1.14
B6	0.694
B7	0.771
B8	1.74
B9	1.02
B10	1.28
